Measured values reported in US5925540A, “Synthetic antifreeze peptide and synthetic gene coding for its production” (Virginia Tech Intellectual Properties, Inc., priority 1991, dated 1999).

Test system: JM109(DE3)
Assay: Studies of cell viability in JM109(DE3) strains bearing pX28 or pX284 after IPTG induction
Format: cell-based, E.coli
Conditions: WF8R expressed as P10 fusion protein from pX28 / pX284; effects more pronounced in the pX28 harboring strain
Description: The pX28 and pX284 were transformed into JM109(DE3). The proteins produced in either the JM109(DE3)[pX28] or in the JM109(DE3)[pX284] after induction by IPTG in mid- or late-logarithmic growth phase, have been analyzed by sodium dodecyl sulfate (SDS)-polyacrylamide gel electrophoresis (SDS-PAGE). […] Studies of cell viability in these strains have shown that both strains are adversely affected with respect to growth and stability of the plasmid (these effects were more pronounced in the pX28 harboring strain). […] To avert this problem the applicants decided to protect the fusion protein from intracellular degradation, as well as to protect the cells from the toxicity of WF8R, by adding to the fusion a C-terminal end derived from E.coli β-galactosidase.

B1: WF8R: synthetic antifreeze peptide of 98 amino acids with eight eleven-amino-acid repeats, modeled on winter flounder AFP, expressed in E. coli (protein)
chain: MSTASDAAAAAAATAATAAAAAAATAATAAAAAAATAATAAAAAAATAATAAAAAAATAATAAAAAAATAATAAKAAALTAANAAAAAAATAAAAARG
toxicity to the host cells (growth and stability of the plasmid adversely affected): toxic to the cells
